Experimental data taken from PMC7261492, “ISCU interacts with NFU1, and ISCU[4Fe-4S] transfers its Fe-S cluster to NFU1 leading to the production of holo-NFU1” (Journal of structural biology, 2020).

Assays:
human apo-NFU1 (human) [1] = target: human apo-NFU1 (human) (UniProt Q9UMS0); assay: SAXS; apo-NFU1:ISCU complex isolated by SEC, dialysed against HNT buffer, 2-8 mg/mL, 298 K; molecular mass by the Vc approach
human apo-NFU1 (human) [2] = target: human apo-NFU1 (human) (UniProt Q9UMS0); assay: ITC; Nano ITC, 25 °C, HNT buffer; syringe 0.8 mM ISCU, cell (169 μL) 0.03 mM NFU1; 20 injections of 2.5 μL; fitted to a 1:1 binding mode
[3] = target: T1, human ISCU (human), Q9H1K1; assay: SEC; anaerobic; mixture of [U-15N]-apo-NFU1 and ISCU[4Fe-4S] incubated 30 min, HiLoad Superdex 200 PG, HNT buffer, 1 mL/min; fractions analysed by SDS-PAGE; details: remark: other sources report otherwise
T1 chain: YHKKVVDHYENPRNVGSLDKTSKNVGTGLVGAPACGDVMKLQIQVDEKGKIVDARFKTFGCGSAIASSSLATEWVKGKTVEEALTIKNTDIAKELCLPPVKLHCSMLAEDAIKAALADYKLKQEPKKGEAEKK

[4] = target: the molecule itself; assay: as above

Molecule: human ISCU (from UniProt Q9H1K1 35-167) (natural protein)
- stoichiometry N (human apo-NFU1 (human) [1]): 1
- Kd (human apo-NFU1 (human) [2]): 1100 nM

B1: human ISCU, Q9H1K1 35-167 (natural protein)
chain: YHKKVVDHYENPRNVGSLDKTSKNVGTGLVGAPACGDVMKLQIQVDEKGKIVDARFKTFGCGSAIASSSLATEWVKGKTVEEALTIKNTDIAKELCLPPVKLHCSMLAEDAIKAALADYKLKQEPKKGEAEKK
- stoichiometry N [3]: 2

B2: human holo-NFU1 (natural protein, UniProt Q9UMS0 10-254, looked up)
chain: GAAAVAAGLRRRFCHMLKNPYTIKKQPLHQFVQRPLFPLPAAFYHPVRYMFIQTQDTPNPNSLKFIPGKPVLETRTMDFPTPAAAFRSPLARQLFRIEGVKSVFFGPDFITVTKENEELDWNLLKPDIYATIMDFFASGLPLVTEETPSGEAGSEEDDEVVAMIKELLDTRIRPTVQEDGGDVIYKGFEDGIVQLKLQGSCTSCPSSIITLKNGIQNMLQFYIPEVEGVEQVMDDESDEKEANSP
modifications: [4Fe-4S] cluster bound by C195 and C198; two NFU1 chains supply the four cysteine ligands of one cluster
notes: NFU1, human, with both the N-terminal domain (NTD) and the C-terminal domain (CTD); Same chain as m2 with the [4Fe-4S] cluster; trimer of cluster-linked dimers (hexamer, 160 kDa); also called NFU1[4Fe-4S]; hexameric holo-NFU1; source: prepared as described earlier (Cai et al., 2016); in the anaerobic SEC formed by adding ISCU[4Fe-4S] to [U-15N]-apo-NFU1
- stoichiometry N [4]: 6
